Measurements as given in US20230118307A1, “THERAPEUTIC USE OF LONG-ACTING CONJUGATE OF TRIPLE AGONIST HAVING ACTIVITIES TO ALL OF GLUCAGON/GLP-1/GIP RECEPTORS FOR LUNG DISEASE” (HANMI PHARM. CO., LTD., priority 2020, published 2023).
Positions of bridges follow the written chain, without caps; N, C: chain ends. Non-standard residues stand in square brackets, D forms with d. No end group written: not given here. Aib = CC(C)(N)C(=O)O

T1: human GIP receptor (human, UniProt P48546 22-466)
T1 sequence (looked up): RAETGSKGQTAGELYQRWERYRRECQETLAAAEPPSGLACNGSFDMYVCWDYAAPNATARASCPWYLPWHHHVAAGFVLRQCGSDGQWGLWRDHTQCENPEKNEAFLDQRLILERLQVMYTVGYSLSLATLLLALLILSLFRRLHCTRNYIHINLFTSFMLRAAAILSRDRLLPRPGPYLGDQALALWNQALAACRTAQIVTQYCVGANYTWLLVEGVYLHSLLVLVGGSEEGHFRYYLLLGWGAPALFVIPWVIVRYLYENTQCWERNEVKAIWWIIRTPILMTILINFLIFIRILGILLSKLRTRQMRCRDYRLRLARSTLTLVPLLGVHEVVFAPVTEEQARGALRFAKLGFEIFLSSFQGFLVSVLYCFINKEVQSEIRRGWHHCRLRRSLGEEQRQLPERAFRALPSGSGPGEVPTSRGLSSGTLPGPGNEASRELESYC


Test system: IPF mice (C57BL/6 mice treated with BLM)
Experiment: Lung fibrosis in bleomycin (BLM) mice, Masson's trichrome staining
Format: in vivo
Conditions: BLM 1.5 U/head; 2 weeks; conjugate 3.9 nmol/kg Q2D subcutaneous; pirfenidone 300 mg/kg QD oral; ambroxol 45 mg/kg BID peritoneal; FIG. 5
Description: In order to confirm the in vivo efficacy of the long-acting conjugate of the triple agonist prepared in the above Examples for improving pulmonary fibrosis, particularly idiopathic pulmonary fibrosis (IPF), which is a representative pulmonary fibrosis, bleomycin (BLM) mice were used. It is known that, when bleomycin is administered intratracheally, the epithelial-mesenchymal transition occurs by damaging DNA of alveolar epithelial cells, which induces idiopathic fibrosis. In addition, it is known that when the BLM treatment dose is increased above a certain level, the survival rate of the mice is reduced due to severe lung damage caused by idiopathic fibrosis. […]
IPF mice prepared by treating C57BL/6 mice (ORIENT Bio, Busan, Korea) with BLM at 1.5 U/head were divided into an excipient control group, a long-acting conjugate of triple agonist administration group (3.9 nmol/kg, Q2D, subcutaneous), a pirfenidone administration group (300 mg/kg, QD, oral), and an ambroxol administration group (45 mg/kg, BID, peritoneal), repeated administration was performed for 2 weeks. After 2 weeks of repeated administration, lung tissue of each mouse was taken by autopsy, and the degree of fibrosis in the lung tissue was evaluated by Masson's trichrome staining. Statistical treatment evaluated the efficacy of the long-acting conjugate of the triple agonist using one-way ANOVA (*-***p<0.05-0.001).

With `Nc1c(Br)cc(Br)cc1CN[C@H]1CC[C@H](O)CC1` [ambroxol, reference compound] the “positive area of Masson's trichrome staining in the lung tissue (degree of fibrosis)” value was “same level of efficacy as the long-acting conjugate of the triple agonist”.

Biological target: human GLP-1 receptor (human, UniProt P43220 24-463)
Experiment: cell-based or functional assay
Conditions: not given

Point of comparison: H[Aib]QGTFTSDYSKYLDEKACKDFVQWLLDGGPSSGAPPPS (bridge 16-20; also: ring type not given here) [triple agonist of SEQ ID NO: 32], “In vitro Activity Compared to Native Peptide (%) vs. GLP-1” value 151%. Against it:
- H[Aib]QGTFTSDYSKYLDEKAQKEFVQWLLDTC (bridge 16-20) [triple agonist of SEQ ID NO: 30] — lower, 142%
- H[Aib]QGTFTSDYSKYLDEKACKEFVQWLLAQ (bridge 16-20) [triple agonist of SEQ ID NO: 31] — lower, 135%
- H[Aib]QGTFTSDYSIAMDEIHQKDFVNWLLAQKC (bridge 16-20; also: ring type not given here) [triple agonist of SEQ ID NO: 33] — lower, 24.5%
- H[Aib]QGTFTSDYSKYLDEKAAKEFVQWLLNTC (bridge 16-20) [triple agonist of SEQ ID NO: 29] — lower, 38.5%

Biological target: T1, human GIP receptor
Experiment: cell-based or functional assay
Conditions: not given

Point of comparison: H[Aib]QGTFTSDYSIAMDEIHQKDFVNWLLAQKC (bridge 16-20; also: ring type not given here) [triple agonist of SEQ ID NO: 33], “In vitro Activity Compared to Native Peptide (%) vs. GIP” value 10.4%. Against it:
- H[Aib]QGTFTSDYSKYLDEKACKDFVQWLLDGGPSSGAPPPS (bridge 16-20; also: ring type not given here) [triple agonist of SEQ ID NO: 32] — lower, 8.8%
- H[Aib]QGTFTSDYSKYLDEKAQKEFVQWLLDTC (bridge 16-20) [triple agonist of SEQ ID NO: 30] — lower, 0.8%
- H[Aib]QGTFTSDYSKYLDEKACKEFVQWLLAQ (bridge 16-20) [triple agonist of SEQ ID NO: 31] — lower, 2.4%
- H[Aib]QGTFTSDYSKYLDEKAAKEFVQWLLNTC (bridge 16-20) [triple agonist of SEQ ID NO: 29] — lower, < 0.1%

Biological target: human GCG receptor (human, UniProt P47871 26-477)
Sequence (P47871 26-477): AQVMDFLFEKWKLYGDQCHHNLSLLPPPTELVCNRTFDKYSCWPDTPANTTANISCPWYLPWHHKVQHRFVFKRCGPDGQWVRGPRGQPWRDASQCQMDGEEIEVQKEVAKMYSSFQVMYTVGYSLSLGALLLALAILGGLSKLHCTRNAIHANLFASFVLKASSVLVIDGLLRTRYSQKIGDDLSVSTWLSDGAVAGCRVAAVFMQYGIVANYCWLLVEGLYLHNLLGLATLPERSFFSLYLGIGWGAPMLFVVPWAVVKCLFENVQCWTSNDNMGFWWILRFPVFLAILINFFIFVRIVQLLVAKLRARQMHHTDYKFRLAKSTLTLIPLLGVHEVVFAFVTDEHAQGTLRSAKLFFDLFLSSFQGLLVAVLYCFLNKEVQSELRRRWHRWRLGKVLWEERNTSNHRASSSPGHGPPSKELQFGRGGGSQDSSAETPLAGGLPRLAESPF
Experiment: cell-based or functional assay
Conditions: not given

Point of comparison: H[Aib]QGTFTSDYSKYLDEKACKDFVQWLLDGGPSSGAPPPS (bridge 16-20; also: ring type not given here) [triple agonist of SEQ ID NO: 32], “In vitro Activity Compared to Native Peptide (%) vs. Glucagon” value 1.7%. Against it:
- H[Aib]QGTFTSDYSKYLDEKAQKEFVQWLLDTC (bridge 16-20) [triple agonist of SEQ ID NO: 30] — lower, 0.7%
- H[Aib]QGTFTSDYSKYLDEKACKEFVQWLLAQ (bridge 16-20) [triple agonist of SEQ ID NO: 31] — higher, 2.2%
- H[Aib]QGTFTSDYSIAMDEIHQKDFVNWLLAQKC (bridge 16-20; also: ring type not given here) [triple agonist of SEQ ID NO: 33] — lower, < 0.1%
- H[Aib]QGTFTSDYSKYLDEKAAKEFVQWLLNTC (bridge 16-20) [triple agonist of SEQ ID NO: 29] — higher, 6%
